This is an account of results in patent publication US12319742 (SHATTUCK LABS, dated 2025).

The target in test [1] is FcγR1 (CD64), BLI reagent (UniProt P12314 16-288, limits assumed). Nature of the test: BLI; antibody as analyte at 300 nM on FcγR1. (In general: Biolayer interferometry detects binding as a change in optical thickness at a sensor tip.)
The target in test [2] is T1, biotinylated recombinant human FcRn-His tagged protein (Acro #FCM-H82W7) (human, UniProt P55899 24-297; P61769 21-119, biotinylated).
T1 construct: also called hFcRn; neonatal Fc receptor
T1 sequence (P55899 24-297 limits assumed, chain 1 of 2): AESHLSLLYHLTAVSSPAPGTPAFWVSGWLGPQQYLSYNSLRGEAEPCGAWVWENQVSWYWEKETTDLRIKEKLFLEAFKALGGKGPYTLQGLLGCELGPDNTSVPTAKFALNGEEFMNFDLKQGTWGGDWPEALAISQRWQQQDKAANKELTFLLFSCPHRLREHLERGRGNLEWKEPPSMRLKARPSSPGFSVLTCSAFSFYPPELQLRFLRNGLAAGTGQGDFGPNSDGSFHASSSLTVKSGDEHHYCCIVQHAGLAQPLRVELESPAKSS
T1 sequence (P61769 21-119 limits assumed, chain 2 of 2): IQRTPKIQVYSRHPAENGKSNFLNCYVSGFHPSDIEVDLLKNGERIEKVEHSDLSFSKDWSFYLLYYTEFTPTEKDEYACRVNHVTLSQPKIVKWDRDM
Kind of test: BLI/Octet; biotinylated human FcRn-His on streptavidin biosensor; pH 6.0.

For another test, the target named is T2, LTbR.
T2 construct: member of group m24; also called LTbR overexpressed in engineered mammalian cells
Kind of test: flow cytometry on engineered mammalian cells overexpressing LTbR, APC anti-human Fc. On the technique in general: Flow cytometry measures light scatter and fluorescence of single cells or particles in a stream.

Another test deals with T3, OX40.
T3 construct: member of group m24; also called OX40 overexpressed in engineered mammalian cells
T3 chain: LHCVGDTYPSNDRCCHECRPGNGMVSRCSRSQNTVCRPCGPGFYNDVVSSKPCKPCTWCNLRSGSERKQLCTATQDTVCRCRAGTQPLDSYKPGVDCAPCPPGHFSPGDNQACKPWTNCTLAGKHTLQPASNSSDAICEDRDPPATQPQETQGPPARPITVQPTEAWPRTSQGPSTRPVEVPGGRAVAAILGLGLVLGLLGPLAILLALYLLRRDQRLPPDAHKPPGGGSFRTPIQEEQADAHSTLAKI
Kind of test: flow cytometry on engineered mammalian cells overexpressing OX40, APC anti-human Fc.

The target in another test is T4, 4-1BB.
T4 construct: member of group m24; also called 4-1BB overexpressed in engineered mammalian cells
T4 sequence (chain, as listed by the source limits assumed): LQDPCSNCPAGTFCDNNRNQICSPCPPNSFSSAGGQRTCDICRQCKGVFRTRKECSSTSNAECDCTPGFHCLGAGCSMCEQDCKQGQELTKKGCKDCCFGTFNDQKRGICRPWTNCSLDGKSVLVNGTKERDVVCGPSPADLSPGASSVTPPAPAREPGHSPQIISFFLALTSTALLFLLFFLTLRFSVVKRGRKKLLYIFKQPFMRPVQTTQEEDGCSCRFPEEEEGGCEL
Nature of the test: flow cytometry on engineered mammalian cells overexpressing 4-1BB, APC anti-human Fc.

Test [3] addresses T5, TNFRSF25 on lymphocytes in human PBMCs (human, UniProt Q93038 25-417).
T5 construct: whole, on cells; also called TNFRSF25 on CD4+ and CD8+ T cells and NK cells
T5 sequence (looked up): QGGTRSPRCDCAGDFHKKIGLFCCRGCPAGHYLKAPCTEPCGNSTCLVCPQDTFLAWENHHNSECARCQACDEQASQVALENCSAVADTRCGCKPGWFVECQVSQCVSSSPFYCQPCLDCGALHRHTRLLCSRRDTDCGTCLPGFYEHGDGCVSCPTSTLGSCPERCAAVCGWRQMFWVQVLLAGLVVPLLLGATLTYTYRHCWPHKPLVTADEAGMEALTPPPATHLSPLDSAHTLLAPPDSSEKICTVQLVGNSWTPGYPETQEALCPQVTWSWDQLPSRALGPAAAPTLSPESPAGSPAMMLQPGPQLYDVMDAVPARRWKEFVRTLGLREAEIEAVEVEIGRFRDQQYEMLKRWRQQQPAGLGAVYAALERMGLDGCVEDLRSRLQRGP
Kind of test: flow cytometry MFI on CD4+ T cells of human PBMCs, no stimulation, APC anti-human Fc.

For test [4], the target named is T5, TNFRSF25 on lymphocytes in human PBMCs. Kind of test: flow cytometry MFI on CD4+ T cells of human PBMCs, anti-CD3/CD28 stimulation 24 h, APC anti-human Fc. As to the method: (§1) Human PBMCs were stimulated with either IL12+IL18 or anti-CD3/CD28 for 24 hours to assess binding of anti-TNFRSF25 to lymphocyte subsets.
(§2) Figure 9: FIG. 9. […] Figure 10: FIG. 10.

Test [5] has the same target. Nature of the test: flow cytometry MFI on CD8+ T cells of human PBMCs (panel 1003_CD8+T), IL12+IL18 stimulation 24 h, APC anti-human Fc. As for the experimental part: as §1, §2

For orientation: Kd means the equilibrium constant for the complex coming apart. What is called koff is the rate constant with which the complex falls apart. As a reminder, the kon is the rate constant with which the complex forms. What is called EC50 is the concentration giving half of the maximal effect. Lower therefore signals higher potency in that assay.

Chain of FcγR1 (CD64), BLI reagent (P12314 16-288 limits assumed): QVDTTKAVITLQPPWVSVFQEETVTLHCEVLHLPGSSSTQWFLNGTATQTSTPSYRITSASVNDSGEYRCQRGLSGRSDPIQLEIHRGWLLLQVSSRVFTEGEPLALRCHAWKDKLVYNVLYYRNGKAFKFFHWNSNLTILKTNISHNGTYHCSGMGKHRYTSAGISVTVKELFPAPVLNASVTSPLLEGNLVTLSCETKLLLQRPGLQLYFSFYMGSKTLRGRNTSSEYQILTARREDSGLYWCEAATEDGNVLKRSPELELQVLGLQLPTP

B1: SL-061 (antibody, human IgG1, kappa)
heavy: QVQLQQSGPGLVKPSQTLSLTCAISGDSVSGYSAAWNWIRQSPSRGLEWLGRTYYRSKWYNDYAVSVKSRITINPDTSKNQFSLQLNSVTPEDTAVYYCARDYYGSESYYNRGYYYYGMDVWGQGTTVTVSSASTKGPSVFPLAPSSKSTSGGTAALGCLVKDYFPEPVTVSWNSGALTSGVHTFPAVLQSSGLYSLSSVVTVPSSSLGTQTYICNVNHKPSNTKVDKKVEPKSCDKTHTCPPCPAPEAAGAPSVFLFPPKPKDTLMISRTPEVTCVVVDVSHEDPEVKFNWYVDGVEVHNAKTKPREEQYNSTYRVVSVLTVLHQDWLNGKEYKCKVSNKALPAPIEKTISKAKGQPREPQVYTLPPSREEMTKNQVSLTCLVKGFYPSDIAVEWESNGQPENNYKTTPPVLDSDGSFFLYSKLTVDKSRWQQGNVFSCSVMHEALHNHYTQKSLSLSPGK
light: AIQLTQSPSSLSASVGDRVTITCRASPGISSALAWYQQKPGKAPKLLMYDESSQESGVPSRFSGSGSGTDFTLTISSLQPEDFATYYCQQFNDYPLTFGGGTKVEIKRTVAAPSVFIFPPSDEQLKSGTASVVCLLNNFYPREAKVQWKVDNALQSGNSQESVTEQDSKDSTYSLSSTLTLSKADYEKHKVYACEVTHQGLSSPVTKSFNRGEC
notes: Same variable regions as SL-033; IgG1 with L234A/L235A+G237A; also called clone 061; SL-061 (L234A/L235A+G237A)
Consider B1, for which the binding result in test [1] was “no binding (tested: 300 nM)”; with LTbR, “no binding (tested: about 20 nM)”; in the test with OX40 it was “no binding (tested: about 20 nM)”; with 4-1BB, “no binding (tested: about 20 nM)”. Further, the dissociation constant Kd in test [2] came out at 4.41 nM. Also, the off-rate (koff) in test [2] is 0.00104 s⁻¹. The kon in test [2] amounted to 235000 M⁻¹ s⁻¹. Besides, the concentration giving a half-maximal response (EC50) in test [3] came to 0.035 nM; in test [4] it was 0.059 nM; in test [5], 0.043 nM.
